B1: Cyanocobalamin reductase / alkylcobalamin dealkylase (Homo sapiens), Q9Y4U1 (parent)
chain: MEPKVAELKQKIEDTLCPFGFEVYPFQVAWYNELLPPAFHLPLPGPTLAFLVLSTPAMFDRALKPFLQSCHLRMLTDPVDQCVAYHLGRVRESLPELQIEIIADYEVHPNRRPKILAQTAAHVAGAAYYYQRQDVEADPWGNQRISGVCIHPRFGGWFAIRGVVLLPGIEVPDLPPRKPHDCVPTRADRIALLEGFNFHWRDWTYRDAVTPQERYSEEQKAYFSTPPAQRLALLGLAQPSEKPSSPSPDLPFTTPAPKKPGNPSRARSWLSPRVSPPASPGP

Variants of: B1
Details: with meth_human MTR

Variant	effect of a mutation on the interaction
R206W	decreasing interaction strength
R161Q	decreasing interaction strength
